Assay results taken from patent US20190194319A1 (AbbVie / Abbott, published 2019).

T1: human ASCL1 (Achaete-scute homolog 1) (human, UniProt P50553 1-236)
T1 construct: also called hASCL1; immobilized human ASCL1
T1 sequence: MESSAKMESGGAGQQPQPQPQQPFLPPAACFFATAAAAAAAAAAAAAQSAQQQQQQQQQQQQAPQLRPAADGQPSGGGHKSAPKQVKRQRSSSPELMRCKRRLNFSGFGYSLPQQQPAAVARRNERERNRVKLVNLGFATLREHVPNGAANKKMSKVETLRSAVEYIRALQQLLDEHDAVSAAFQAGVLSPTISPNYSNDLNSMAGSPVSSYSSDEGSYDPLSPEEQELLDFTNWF

T2: hASCL1 expressed in HEK-293T cells (pLMEGPA-hASCL1-NFlag) (human, UniProt P50553 1-236)
T2 construct: also called HEK293T cells transiently transduced with hASCL1; ASCL1 engineered cells
T2 sequence: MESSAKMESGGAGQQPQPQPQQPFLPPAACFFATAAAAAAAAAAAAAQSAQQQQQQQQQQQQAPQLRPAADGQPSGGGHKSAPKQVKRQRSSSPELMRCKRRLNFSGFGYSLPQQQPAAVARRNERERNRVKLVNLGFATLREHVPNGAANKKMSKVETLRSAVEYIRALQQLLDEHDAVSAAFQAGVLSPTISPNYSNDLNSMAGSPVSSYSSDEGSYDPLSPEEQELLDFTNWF


Columns and labels:
[1] = biological target: T1, human ASCL1 (Achaete-scute homolog 1); test: screening of Example 2 (ELISA) or cells
[2] = biological target: T2, hASCL1 expressed in HEK-293T cells …; test: intracellular flow cytometry (gMFI) on permeabilised HEK293T cells transduced with hASCL1, control cells transduced with GFP only; antibody 10 ug/ml
Method: 1×10⁵ per well of HEK293T cells transiently transduced with hASCL1(as described in Example 1), and HEK293T cells transiently transduced with GFP only were washed with cold PBS and then incubated with a solution of PBS and a Dylight 450 Fixable viability dye for 30 minutes. After incubation, the cells were washed twice with PBS. To permeate the cell walls 100 ul of BD Cytofix/Cytoperm was added to the cells and left to incubate for 20 minutes on ice. Cells were then washed with BD Phosflow perm/wash solution. Purified antibody at a final concentration of 10 ug/ml was then added to the cells in 45 ul of BD Phosflow perm/wash solution, incubated on ice for 30 minutes, and then washed with BD Phosflow perm/wash 2 times. 50 ul of Alexa Fluor 647 conjugated Goat-anti-mouse IgG secondary antibody, was added at 1 ug/ml dissolved in BD Phosflow perm/wash and incubated on ice for 30 minutes, then washed with BD Phosflow perm/wash 3 times. The cells were then resuspended in FACS buffer to be read on BD FACS Canto according to the manufacturer's instructions.
The FlowJo software package (FlowJo LLC) was used to calculate gMFI (geometric Mean Fluorescence Intensity) for each of the anti-ASCL1 antibodies.

[3] = biological target: T1, human ASCL1 (Achaete-scute homolog 1); test: ELISA with purified antibody: staining against hASCL1 divided by staining against an irrelevant protein (form of the coated hASCL1 not stated in paragraph 180; the screen it confirms used hASCL1-GST)
Method: A second immunization campaign was conducted similar to the first with the following modifications: 1) 299×10⁶ cells) were fused with non-secreting SP2/0-Ag14 myeloma cells (ATCC #CRL-1581) at a ratio of 1:1 by electro cell fusion using a model BTX Hybrimmune System (BTX Harvard Apparatus). On day 6, after the fusion, the hybridoma cells were not frozen and were sorted on that day. After the 10 day culture, 6×384 clones were screened by ELISA selecting for antibodies positive to hASCL1-GST (glutathione S-transferase) and counter screened against an irrelevant protein tagged with GST. As part of this, ALK phosphatase-labeled goat anti-mouse IgG diluted 1:5000 in PBSA was used instead of HRP-labeled goat anti-mouse IgG diluted 1:10:000. ELISA samples were analyzed at OD405 instead of OD450.
To confirm the results of the ELISA soup screen a similar ELISA was run on purified antibodies from selected clones. The ELISA positive ratio, (defined as ELISA staining against hASCL1 divided by the ELISA staining against an irrelevant protein) was then determined and set forth in FIG. 3 in the column labeled “ELISA positive ratio”.

Row | binding result [1] | IC ratio [2] | ELISA positive ratio [3] | Binder
1 | binds | – | – | SC72.96 (antibody, V domains shown, Murine monoclonal antibody from a hybridoma; light chain amplified with kappa primers) VH: EVQLQQSGPELVKPGASVKMSCKASGYTLTAYNIHWVKQSHGKSLEWIGFINPHSGGTTYNEKFKGKATLTVNKSSSTANMELRSLTSEDSAVYYCASIYYYGSSYFDHWGQGTTLTVSS VL: DIQMTQSPASLSASVGETVTMTCRASENIHSNLVWYQQKQGKSPQLLVYAATNLADGVPSRFSGSGSGSQFSLKIDSLQPEDFGSYLCQHFYGTPRTFGGGTKLEIK
2 | binds | – | – | SC72.52 (antibody, V domains shown, Murine monoclonal antibody from a hybridoma; light chain amplified with kappa primers) VH: QVQLQQPGSVLVRPGASVKLSCKASGYTFTSYWMHWVKQRPGQGLEWIGEIYPNSGRTNYNEKFKGKATLTVDTSSSTAYVDLSSLTSEDSAVYYCHYYDDNYGYWGQGTTLTVSS VL: DIVITQDELSNPVTSGESVSISCRSSKSLLYKDGKTYLNWFLQRPGQSPQLLIYLMSTRASGVSDRFSGSGSGTDFTLEISRVKAEDVGVYYCQQFVEYPLTFGAGTKLELK
3 | – | 1.86 | 13 | SC72.216 (antibody, V domains shown, Murine monoclonal antibody from a hybridoma of the second immunization campaign; light chain amplified with kappa primers) VH: QIQLVQSGPELRKPGETVKISCKASGYTFTNYPMHWVKQAPGKGFKWMGWINTYSGVPSYADDFKGRFAFSLETSASSAYLQINNLKNEDMATYFCARHNYNSYDVFAYWGQGTLVTVSA VL: DIVVTQSPASLAVSLGQRATISCKASQSVDYDGDSYMNWYQQKPGQPPKLLIYGASNLESGIPARFSGSGSGTDFTLNIHPVEEEDAATYYCQQSNEDPYTFGGGTKLEIK
4 | – | 3.69 | 14.2 | SC72.165 (antibody, V domains shown, Murine monoclonal antibody from a hybridoma; light chain amplified with kappa primers) VH: QVQLQQPGAELVRPGASVRLSCKASGYSFTSYWINWVKQRPGQGLEWIGNIYPGSSNTNYNEKFKRKATLTVDTSSSTAYMQLSSLTSDDSAVYYCARSESDYWGQGTTLTVSS VL: DIVLTQSPASLAVSPGQRATISCKASQSVGYDGDTYLSWYQQKPGQPPKLLIYGVSILESGIPARFSGSGSGTDFTLNIHPVEEEDAATYYCQQSSEDPYTFGGGTKLEIK
5 | binds | – | – | SC72.181 (antibody, V domains shown, Murine monoclonal antibody from a hybridoma; light chain amplified with kappa primers) VH: QVQLQQPGAEVVKPGASVRLSCKASGYTFTSYWINWVKQRPGQGLEWIGNIYPGSSSTNYNEKFKSKATLTVDTSSSTAYMQLSSLTSDDSAVYYCSRSESDYWGQGTTLTVSS VL: DIVLTQSPASLAVSLGQRATISCKASQSVDDDGGTYMSWYQQKPGQPPKLLIYGVFILESGIPARFSGSGSGTDFTLNIHPVEEEDAATYYCQQSNEDPYTFGGGTKLEIK
6 | – | 0.67 | 11.7 | SC72.201 (antibody, V domains shown, Murine monoclonal antibody from a hybridoma of the second immunization campaign; light chain amplified with kappa primers) VH: EVNLEESGGGLVQPGGSMKLSCVASGFTFSNYWMNWVRQSPEKGLEWVAQIRSKSDNYATHYAESVKGRFTISRDDSKSSVYLQMNNLRSEDTGIYYCRTGPDVWGTGTTVTVSS VL: DIQMTQSPASLSVSVGETVTITCRASENIYSSLAWYQQKQGNSPQLLVYAATKLADGVPSRFSGSGSGTQYSLKINSLQSEDFGSYYCQHFWGTTWTFGGGTKLEIK
7 | binds | – | – | SC72.94 (antibody, V domains shown, Murine monoclonal antibody from a hybridoma; light chain amplified with kappa primers) VH: QVQLQQPGTELVKPGASVKLSCKASAYTFTSLWIHWVKQRPGQGLEWIGDINPSIGDTYYNERFKSKATLTVDKSSSTAYMQLSSLTSEDSAVYYCTTGDSWGQGTTLTVSS VL: DIQMNQSPSSLSASLGDTITITCRASQGISIWLSWYQQKPGNIPKLLIYKASNLHTGVPPSFSGSGSGTDFTLTISSLQPEDIATYYCLQSQSYPWTFGGGTKLEIK
8 | binds | – | – | SC72.28 (antibody, V domains shown, Murine monoclonal antibody from a hybridoma; light chain amplified with kappa primers) VH: DVQLQQSGAELVRPGALVKLSCKASGFNIKDYLIHWVKQRPEQGLEWIGCIDPENGNTIYDPRFQGKAKITSDTSSTTAYLRLTSLTSEDTAVYYCGRGGLDYWGQGTTLTVSS VL: not shown
9 | binds | – | – | SC72.91 (antibody, V domains shown, Murine monoclonal antibody from a hybridoma; light chain amplified with kappa primers) VH: QVQLQQSGPEVVKPGASVKLSCKASGYTFTTYDINWVKQRPGQGLEWIGWIYFRDGTNKYNEKFKGKATLTVDTSSSTAYMELHSLTSEDSAVYFCASVYDGYYVSGFDIMDYWGQGTSVTVSS VL: DVVLTQTPLSLPVSLGDQASIYCRSSQSIVHSNGNTYFEWYLQKPGQSPKLLIYKVSNRLSGVPDRFSGSGSGTDFTLKISRVEAVDLGIYYCFQASHVPFTFGAGTKLELK
10 | binds | – | – | SC72.76 (antibody, V domains shown, Murine monoclonal antibody from a hybridoma; light chain amplified with kappa primers) VH: QVQLKESGPGLVAPSQSLSITCTVSDFSLTNYAVHWVRQSPGKGLEWLGVIWSDGNTDYNAPFISRLSISKDNSKSQVFFKMNSLQADDTAIYYCASYGDSAYWGQGTLVTVSA VL: DIVLTQSPASLTVSLGQRATISCRASQSVRTSNYSYMHWYQQKPGQPPKLLIKYASNLESGVPARFSGSGSGTDFTLNIHPVEEEDTATYYCQHHWEIPFTFGGGTKLEIK
11 | binds | – | – | SC72.63 (antibody, V domains shown, Murine monoclonal antibody from a hybridoma; light chain amplified with kappa primers) VH: EVQLLQSGPELVKPGASVKMSCKASGYTLTDYNLHWVKQSHAKSLEWIGYINPYNGVTSYNQRFKGKATLTVNKSSSTAFMEFRSLTSEDSAVYYCVSLYYGDDPFACWGQGTLVTVST VL: DIQMTQSPASLSASVGETVTMTCRASENIYSNLAWYQQKQGKSPQLLVYAATNLADDVPSRFSGSGSGTQFSLKINSLQPEDFGIYYCHHFYGSPLTFGAGTKLELK
12 | binds | – | – | SC72.93 (antibody, V domains shown, Murine monoclonal antibody from a hybridoma; same VL as SC72.2; light chain amplified with kappa primers) VH: QVQLQQSGAELVRPGASVTLSCKASGYIFIDYEMHWVKQTPVHGLEWIGSIDPETGDTVYNQKFKGKATLTADKSSSTAYMELRSLTSEDSAVYYCSRGGLDYWGQGTTLTVSS VL: not shown
13 | binds | – | – | SC72.132 (antibody, V domains shown, Murine monoclonal antibody from a hybridoma; light chain amplified with kappa primers) VH: EVKLVESEGGLVQPGSSMKLSCTASGFTFSDYYMAWVRQVPEKGLEWVATIDYDGSNTYYLDSLKSRFIISRDNAKNILYLQMSSLKSEDTATYYCARDGGYDEDYFDYWGQGTTLTVSS VL: DIVMSQSPSSLAVSVGEKVTLSCKSSQTLLYSSNQQNYLAWYQQKPGQSPKLLIYWASTRESGVPDRFTGSGSGTDFTLTISSVKAEDLAVYYCHQYYTYPFTFGSGTKLEIK
